Reference: patent publication US20130309230A1 (published 2013)

Target: T1, UC4F10-11 hamster anti-mouse CTLA4 antibody
T1 construct: also called mouse anti-CTLA4 antibody (clone UC4 F10-11); anti-CTLA4
Test: bacterial display / FACS screening with labelled anti-CTLA4 antibody
Experimental: Subsequent rounds of enrichment were carried out using FACS. For the initial round of FACS, bacteria were sorted using biotinylated target (5 nM) and secondary labeling step with streptavidin phycoerythrin. […] Relative affinity and off-rate screening of individual clones were performed using a ficin digested Dylight-labeled Fab antibody fragment to reduce avidity effects of the bivalent antibody due to the expression of multiple peptides on the bacterial surface. As an additional test of target specificity, individual clones were screened for binding in the presence of 20 uM E. Coli depleted IgG as a competitor.

T1 sequence (VH, as listed by the source limits assumed, chain 1 of 2): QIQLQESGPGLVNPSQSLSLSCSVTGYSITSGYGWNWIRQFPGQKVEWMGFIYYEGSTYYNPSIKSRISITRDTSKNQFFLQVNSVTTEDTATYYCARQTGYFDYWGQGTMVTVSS
T1 sequence (VL, as listed by the source limits assumed, chain 2 of 2): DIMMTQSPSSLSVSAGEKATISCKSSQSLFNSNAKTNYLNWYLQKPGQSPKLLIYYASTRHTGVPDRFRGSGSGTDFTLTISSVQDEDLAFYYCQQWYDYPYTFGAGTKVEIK

- binding result: no binding
B1: Negative control (does not bind anti-CTLA4) (peptide)
peptide: PCSEWQSMVQPRCYY
notes: The printed peptide has A where the printed DNA encodes Q; also called MMneg; negative control MM
